Our source for the optical density values is patent publication US20210380703A1.

The chains are these.
B1: 370_E12 (antibody, V domains shown)
VH: EVQLLESGGGLVQPGGSLRLSCAASGFTFDSYGMHWVRQAPGKGLEWVAGINYNGGYTSYADSVKGRFTISRDNSKNTLYLQMNSLRAEDTAVYYCARAATWHDTHLDYWGQGTLVTVSS
VL: DIQMTQSPSSLSASVGDRVTITCRASQSILSYVNWYQQKPGKAPKLLIYAATSRASGVPSRFSGSGSGTDFTLTISSLQPEDFATYYCQQSYENPLTFGGGTKVEIK
B2: 371_C02 (antibody, V domains shown)
VH: EVQLLESGGGLVQPGGSLRLSCAASGFTFDSYGMHWVRQAPGKGLEWVAGINYNSGYTGYADSVKGRFTISRDNSKNTLYLQMNSLRAEDTAVYYCARAATWHDTHLDYWGQGTLVTVSS
VL: DIQMTQSPSSLSASVGDRVTITCRASQSILTYVNWYQQKPGKAPKLLIYAASSLQSGVPSRFSGSGSGTDFTLTISSLQPEDFATYYCQQSYDTPLTFGGGTKVEIK
B3: 373_D11 (antibody, V domains shown)
VH: EVQLLESGGGLVQPGGSLRLSCAASGFTFSSYGMHWVRQAPGKGLEWVAGINYNGGYTSYADSVKGRFTISRDNSKNTLYLQMNSLRAEDTAVYYCARAATWHDTHLDYWGQGTLVTVSS
VL: DIQMTQSPSSLSASVGDRVTITCRASQSILTYVNWYQQKPGKAPKLLIYAATSRASGVPSRFSGSGSGTDFTLTISSLQPEDFATYYCQQSYDNPLTFGGGTKVEIK
B4: 373_B01 (antibody, V domains shown)
VH: EVQLLESGGGLVQPGGSLRLSCAASGFTFDSYGMHWVRQAPGKGLEWVSGINYNGGYKSYADSVKGRFTISRDNSKNTLYLQMNSLRAEDTAVYYCARAATWHDTHLDYWGQGTLVTVSS
VL: DIQMTQSPSSLSASVGDRVTITCRASQSILSYVNWYQQKPGKAPKLVIYAATSRASGVPSRFSGSGSGTDFTLTISSLQPEDFATYYCQQSYDLPLTFGGGTKVEIK
B5: 375_H04 (antibody, V domains shown)
VH: EVQLLESGGGLVQPGGSLRLSCAASGFTFSSYGMHWVRQAPGKGLEWVAGINYNSGYTGYADSVKGRFTISRDNSKNTLYLQMNSLRAEDTAVYYCARAATWHDTHLDYWGQGTLVTVSS
VL: DIQMTQSPSSLSASVGDRVTITCRASQSILSYLNWYQQKPGKAPKLVIYAATSRASGVPSRFSGSGSGTDFTLTISSLQPEDFATYYCQQSYSNPLTFGGGTKVEIK
B6: 374_A12 (antibody, V domains shown)
VH: EVQLLESGGGLVQPGGSLRLSCAASGFTFDSYGMHWVRQAPGKGLEWVSSINYNGGYTSYADSVKGRFTISRDNSKNTLYLQMNSLRAEDTAVYYCARAATWHDTHLDYWGQGTLVTVSS
VL: DIQMTQSPSSLSASVGDRVTITCRASQSILTYLNWYQQKPGKAPKLLIYAATSRASGVPSRFSGSGSGTDFTLTISSLQPEDFATYYCQQSDSNPLTFGGGTKVEIK
B7: 371_A05 (antibody, V domains shown)
VH: EVQLLESGGGLVQPGGSLRLSCAASGFTFSSYGMHWVRQAPGKGLEWVSNINYNGGYKSYADSVKGRFTISRDNSKNTLYLQMNSLRAEDTAVYYCARAATWHDTHLDYWGQGTLVTVSS
VL: DIQMTQSPSSLSASVGDRVTITCRASQSILTYLNWYQQKPGKAPKLLIYAATSRASGVPSRFSGSGSGTDFTLTISSLQPEDFATYYCQQSDNLPLTFGGGTKVEIK
B8: 371_D05 (antibody, V domains shown)
VH: EVQLLESGGGLVQPGGSLRLSCAASGFTFDDYGMHWVRQAPGKGLEWVSGINYNGGYTSYADSVKGRFTISRDNSKNTLYLQMNSLRAEDTAVYYCARAATWHDTHLDYWGQGTLVTVSS
VL: DIQMTQSPSSLSASVGDRVTITCRASQSILTYLNWYQQKPGKAPKLLIYAASSLQSGVPSRFSGSGSGTDFTLTISSLQPEDFATYYCQQSYDSPLTFGGGTKVEIK
B9: 376_D08 (antibody, V domains shown)
VH: EVQLLESGGGLVQPGGSLRLSCAASGFTFDSYGMNWVRQAPGKGLEWVANINYNSGYKSYADSVKGRFTISRDNSKNTLYLQMNSLRAEDTAVYYCARAATWHDTALDYWGQGTLVTVSS
VL: DIQMTQSPSSLSASVGDRVTITCRASQSILTYLNWYQQKPGKAPKLVIYYANNRPSGVPSRFSGSGSGTDFTLTISSLQPEDFATYYCQQSYSNPLTFGGGTKVEIK
B10: 371_B11 (antibody, V domains shown)
VH: EVQLLESGGGLVQPGGSLRLSCAASGFTFSSYSMHWVRQAPGKGLEWVASINYNSGYTSYADSVKGRFTISRDNSKNTLYLQMNSLRAEDTAVYYCARAATWHDTHLDYWGQGTLVTVSS
VL: DIQMTQSPSSLSASVGDRVTITCRASQSILTYLNWYQQKPGKAPKLLIYAATSRASGVPSRFSGSGSGTDFTLTISSLQPEDFATYYCQQSYELPLTFGGGTKVEIK
B11: 374_B07 (antibody, V domains shown)
VH: EVQLLESGGGLVQPGGSLRLSCAASGFTFSSYGMHWVRQAPGKGLEWVSSINYNGGYKSYADSVKGRFTISRDNSKNTLYLQMNSLRAEDTAVYYCARAATWHDTHLDYWGQGTLVTVSS
VL: DIQMTQSPSSLSASVGDRVTITCRASQSIISYLNWYQQKPGKAPKLLIYAATSLASGVPSRFSGSGSGTDFTLTISSLQPEDFATYYCQQSYESPLTFGGGTKVEIK
B12: 373_G06 (antibody, V domains shown)
VH: EVQLLESGGGLVQPGGSLRLSCAASGFTFSSYGMHWVRQAPGKGLEWVASINYNSGYTGYADSVKGRFTISRDNSKNTLYLQMNSLRAEDTAVYYCARAATWHDTHLDYWGQGTLVTVSS
VL: DIQMTQSPSSLSASVGDRVTITCRASQSILSYVNWYQQKPGKAPKLLIYAATSLASGVPSRFSGSGSGTDFTLTISSLQPEDFATYYCQQSYNLPLTFGGGTKVEIK
B13: 375_C03 (antibody, V domains shown)
VH: EVQLLESGGGLVQPGGSLRLSCAASGFTFDSYSMHWVRQAPGKGLEWVSGINYNGGYTSYADSVKGRFTISRDNSKNTLYLQMNSLRAEDTAVYYCARAATWHDTHLDYWGQGTLVTVSS
VL: DIQMTQSPSSLSASVGDRVTITCRASQSILSYVNWYQQKPGKAPKLVIYAATSRASGVPSRFSGSGSGTDFTLTISSLQPEDFATYYCQQSYESPLTFGGGTKVEIK
B14: 374_A10 (antibody, V domains shown)
VH: EVQLLESGGGLVQPGGSLRLSCAASGFTFSSYGMHWVRQAPGKGLEWVSGINYNGGYTSYADSVKGRFTISRDNSKNTLYLQMNSLRAEDTAVYYCARAATWHDTHLDYWGQGTLVTVSS
VL: DIQMTQSPSSLSASVGDRVTITCRASQSILSYVNWYQQKPGKAPKLLIYAATSRASGVPSRFSGSGSGTDFTLTISSLQPEDFATYYCQQSYDTPLTFGGGTKVEIK
B15: 372_D07 (antibody, V domains shown)
VH: EVQLLESGGGLVQPGGSLRLSCAASGFTFSSYGMNWVRQAPGKGLEWVAGINYNGGYTSYADSVKGRFTISRDNSKNTLYLQMNSLRAEDTAVYYCARAATWHDTHLDYWGQGTLVTVSS
VL: DIQMTQSPSSLSASVGDRVTITCRASQSILSYLNWYQQKPGKAPKLLIYAATSRASGVPSRFSGSGSGTDFTLTISSLQPEDFATYYCQQSYESPLTFGGGTKVEIK
B16: 371_F07 (antibody, V domains shown)
VH: EVQLLESGGGLVQPGGSLRLSCAASGFTFSSYGMHWVRQAPGKGLEWVAGINYNGGYTSYADSVKGRFTISRDNSKNTLYLQMNSLRAEDTAVYYCARAATWHDTHLDYWGQGTLVTVSS
VL: DIQMTQSPSSLSASVGDRVTITCRASQSILTYLNWYQQKPGKAPKLLIYAATSLASGVPSRFSGSGSGTDFTLTISSLQPEDFATYYCQQSDSNPLTFGGGTKVEIK
B17: 374_B01 (antibody, V domains shown)
VH: EVQLLESGGGLVQPGGSLRLSCAASGFTFDSYGMHWVRQAPGKGLEWVAGINYNSGYTSYADSVKGRFTISRDNSKNTLYLQMNSLRAEDTAVYYCARAATWHDTHLDYWGQGTLVTVSS
VL: DIQMTQSPSSLSASVGDRVTITCRASQSILSYLNWYQQKPGKAPKLLIYAASSLQSGVPSRFSGSGSGTDFTLTISSLQPEDFATYYCQQSYDSPLTFGGGTKVEIK
B18: 370_H05 (antibody, V domains shown)
VH: EVQLLESGGGLVQPGGSLRLSCAASGFTFSSYGMHWVRQAPGKGLEWVSNINYNGGYTSYADSVKGRFTISRDNSKNTLYLQMNSLRAEDTAVYYCARAATWHDTHLDYWGQGTLVTVSS
VL: DIQMTQSPSSLSASVGDRVTITCRASQSILSYLNWYQQKPGKAPKLLIYAASSLQSGVPSRFSGSGSGTDFTLTISSLQPEDFATYYCQQSDSLPLTFGGGTKVEIK
B19: 371_B02 (antibody, V domains shown)
VH: EVQLLESGGGLVQPGGSLRLSCAASGFTFDSYGMNWVRQAPGKGLEWVSNINYNGGYTSYADSVKGRFTISRDNSKNTLYLQMNSLRAEDTAVYYCARAATWHDTHLDYWGQGTLVTVSS
VL: DIQMTQSPSSLSASVGDRVTITCRASQSILTYVNWYQQKPGKAPKLVIYAATSLASGVPSRFSGSGSGTDFTLTISSLQPEDFATYYCQQSYNNPLTFGGGTKVEIK
B20: 366_A02 (antibody, V domains shown)
VH: EVQLLESGGGLVQPGGSLRLSCAASGFTFDSYGMNWVRQAPGKGLEWVASINYNSGYKGYADSVKGRFTISRDNSKNTLYLQMNSLRAEDTAVYYCARAANWHDTHLDYWGQGTLVTVSS
VL: DIQMTQSPSSLSASVGDRVTITCRASQSIVSYVNWYQQKPGKAPKLLIYAATSRASGVPSRFSGSGSGTDFTLTISSLQPEDFATYYCQQSYDLPLTFGGGTKVEIK
B21: 375_D02 (antibody, V domains shown)
VH: EVQLLESGGGLVQPGGSLRLSCAASGFTFSSYSMNWVRQAPGKGLEWVSNINYNGGYTSYADSVKGRFTISRDNSKNTLYLQMNSLRAEDTAVYYCARAATWHDTHLDYWGQGTLVTVSS
VL: DIQMTQSPSSLSASVGDRVTITCRASQSILTYLNWYQQKPGKAPKLLIYAASSLQSGVPSRFSGSGSGTDFTLTISSLQPEDFATYYCQQSYELPLTFGGGTKVEIK

In this assay the target is human Fc (human). Briefly: ELISA, negative control. For orientation: In an ELISA, binding on a coated surface is turned into a signal by an enzyme label.
Molecule B1 registered an optical density of 0.656 OD.
Consider B2, for which the optical density was 0.372 OD.
B3 yielded an optical density of 0.364 OD.
B4 came in with an optical density of 0.197 OD.
For B5, the optical density was 0.181 OD.
Then B6, with 0.308 OD.
Consider B7, for which the optical density came out at 0.369 OD.
B8 showed an optical density of 0.339 OD.
Next, B9: 0.232 OD; B10: 0.549 OD; B11: 0.25 OD.
In the case of B12, the optical density was determined as 0.196 OD.
B13 showed an optical density of 0.217 OD.
Consider B14, for which the optical density came out at 0.23 OD.
On to B15, for which the optical density is 0.472 OD.
B16 yielded an optical density of 0.425 OD.
Next, B17: 0.173 OD; B18: 0.364 OD; B19: 0.449 OD.
Consider B20, for which the optical density stood at 0.336 OD.
For B21, the optical density amounted to 0.191 OD.
